The text below walks through data of PMC7884425.

Test [1] concerns the target full-length human PARP1 (activated by DNA) (human), P09874. The experiment in a line: ITC; in the presence of DNA. The note with it: natural protein; chains chain; remark: other sources report otherwise. A general note: ITC needs no label: the signal is the heat of the interaction.
Test [2] has the same target. The experiment in a line: ITC; HPF1 in the syringe; full-length PARP1 0.02 mM pre-incubated with 0.06 mM DNA hairpin at 4 °C for at least 60 min, in the cell; 25 °C; 20 mM Tris-pH 8.0, 150 mM NaCl, 1 mM TCEP, 1 mM MgCl2. Particulars: remark: other sources report otherwise.

Chain of full-length human PARP1 (activated by DNA) (human), P09874 (P09874 whole entry): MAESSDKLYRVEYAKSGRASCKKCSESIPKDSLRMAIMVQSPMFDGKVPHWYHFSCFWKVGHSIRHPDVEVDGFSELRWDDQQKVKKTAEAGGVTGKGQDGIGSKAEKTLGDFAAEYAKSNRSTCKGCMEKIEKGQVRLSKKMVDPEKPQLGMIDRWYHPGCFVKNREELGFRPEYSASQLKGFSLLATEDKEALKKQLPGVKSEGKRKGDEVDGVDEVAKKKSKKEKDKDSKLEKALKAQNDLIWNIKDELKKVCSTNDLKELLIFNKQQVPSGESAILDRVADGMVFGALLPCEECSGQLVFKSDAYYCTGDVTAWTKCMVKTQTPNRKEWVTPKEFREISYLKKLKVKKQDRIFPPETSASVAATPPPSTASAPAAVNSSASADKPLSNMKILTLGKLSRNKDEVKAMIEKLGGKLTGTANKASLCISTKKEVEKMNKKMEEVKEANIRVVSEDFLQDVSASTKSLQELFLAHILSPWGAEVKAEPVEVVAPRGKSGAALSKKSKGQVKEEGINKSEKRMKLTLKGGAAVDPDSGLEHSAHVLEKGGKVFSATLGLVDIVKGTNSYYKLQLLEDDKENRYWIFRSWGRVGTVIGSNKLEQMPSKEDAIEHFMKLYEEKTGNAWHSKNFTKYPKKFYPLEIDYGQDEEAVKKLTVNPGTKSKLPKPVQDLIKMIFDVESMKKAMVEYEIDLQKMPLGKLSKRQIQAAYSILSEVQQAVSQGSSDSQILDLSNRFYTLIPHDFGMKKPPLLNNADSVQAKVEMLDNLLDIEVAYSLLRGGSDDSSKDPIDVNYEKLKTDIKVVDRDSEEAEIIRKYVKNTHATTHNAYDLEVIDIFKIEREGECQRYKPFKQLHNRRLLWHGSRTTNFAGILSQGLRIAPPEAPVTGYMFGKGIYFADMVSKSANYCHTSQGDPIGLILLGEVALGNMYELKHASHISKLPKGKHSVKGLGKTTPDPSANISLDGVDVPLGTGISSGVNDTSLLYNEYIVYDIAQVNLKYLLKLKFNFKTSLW

B1: human HPF1 (histone PARylation factor 1), wild-type, Q9NWY4 1-346 (natural protein)
chain: MVGGGGKRRPGGEGPQCEKTTDVKKSKFCEADVSSDLRKEVENHYKLSLPEDFYHFWKFCEELDPEKPSDSLSASLGLQLVGPYDILAGKHKTKKKSTGLNFNLHWRFYYDPPEFQTIIIGDNKTQYHMGYFRDSPDEFPVYVGINEAKKNCIIVPNGDNVFAAVKLFLTKKLREITDKKKINLLKNIDEKLTEAARELGYSLEQRTVKMKQRDKKVVTKTFHGAGLVVPVDKNDVGYRELPETDADLKRICKTIVEAASDEERLKAFAPIQEMMTFVQFANDECDYGMGLELGMDLFCYGSHYFHKVAGQLLPLAYNLLKRNLFAEIIEEHLANRSQENIDQLAA
For B1, in test [1], the Ka came to 330000 M⁻¹. In test [2], this molecule returned a Kd of 2.8 µM.

A word on the Kd: it is the free concentration of one partner at which half of the binding sites on the other are occupied at equilibrium, for simple one-to-one binding.
